Source: the supplement of paper PMC7877785
± gives the uncertainty stated by the source.

Assay: self-splicing fitness, log relative to wild type (ln ratio); higher = more splicing; Tetrahymena group I intron in knt gene, E. coli kanamycin selection, DiMSum; sequences stand for … in CUCUCU…GGAGGGAAAAGUUAUCAGGCAUGCACCUGGUAGCUAGUCUUUAAACCAAUAGAUUGCAUCGGUUUAAAAGGCAAGACCGUCAAAUUGCGGGAAAGGGGUCAACAGCCGUUCAGUACCAAGUCUCAGGGGAAACUUUGAGAUGGCCUUGCAAAGGGUAUGGUAAUAAGCUGACGGACAUGGUCCUAACCACGCAGCCAAGUCCUAAGUCAACAGAUCUUCUGUUGAUAUGGAUGCAGUUCACAGACUAAAUGUCGGUCGGGGAAGAUGUAUUCUUCUCAUAAGAUAUAGUCGGACCUCUCCUUAAUGGGAGCUAGCGGAUGAAGUGAUGCAACACUGGAGCCGCUGGGAACUAAUUUGUAUGCGAAAGUAUAUUGAUUAGUUUUGGAGUACUCGUGGUCG
Procedure, shortened: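 A randomised library covering all eight P1ex-region intron nucleotides was built with the intron in the knt kanamycin-resistance gene on pET-22b(+) and held in E. coli BL21(DE3). Cells were grown overnight at 37°C or 30°C on LB agar, with or without 25 μg/mL kanamycin, plus 100 μg/mL carbenicillin, 50 μM IPTG and 0.2% rhamnose, and pooled colonies were amplicon-sequenced on an Illumina HiSeq 2500. DiMSum fitness is the error-weighted combination of wild-type-normalised replicate fold changes, kanamycin versus none.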

Sequence | self-splicing fitness (ln) (30 °C) | self-splicing fitness (ln) (37 °C)
AUUCAGCAAUAUUACGAGCU | -1.21 ± 0.14 | -0.997 ± 0.17
CACAAGCAAUAUUACGAAAG | -0.721 ± 0.08 | 0.0107 ± 0.1
GAAGAGCAAUAUUACGUGCU | -3.52 ± 0.22 | 
GCUAAGCAAUAUUACGGUCC | -1.4 ± 0.22 | -0.541 ± 0.3
CAUUAGCAAUAUUACGAAAU | -3.12 ± 0.29 | -2.37 ± 0.28
AAGGAGCAAUAUUACGUUCA | -1.44 ± 0.077 | -0.0364 ± 0.088
UAACAGCAAUAUUACGGUCG | -0.363 ± 0.04 | -0.0859 ± 0.056
CCGUAGCAAUAUUACGAGCG | -0.86 ± 0.12 | -0.719 ± 0.15
AUACAGCAAUAUUACGCCAG | -1.79 ± 0.14 | -2.03 ± 0.2
AUUUAGCAAUAUUACGCCGU | -1.2 ± 0.2 | -1.44 ± 0.22
GCACAGCAAUAUUACGGCCG | -2.48 ± 0.17 | -1.75 ± 0.18
GCCAAGCAAUAUUACGUGCA | -1.63 ± 0.087 | -0.541 ± 0.09
UGUGAGCAAUAUUACGCGAU | -3.88 ± 0.33 | -3.57 ± 0.37
CCCUAGCAAUAUUACGACGC | -3.34 ± 0.32 | -2.53 ± 0.39
AUAGAGCAAUAUUACGACGG | -2.52 ± 0.18 | -0.742 ± 0.26
AGUCAGCAAUAUUACGGCCU | 0.247 ± 0.1 | 0.507 ± 0.13
AUAUAGCAAUAUUACGAGUG | -2.78 ± 0.19 | -1.8 ± 0.2
ACUAAGCAAUAUUACGGGAC | -2.94 ± 0.14 | -0.635 ± 0.12
GACGAGCAAUAUUACGGUAA | -3.65 ± 0.47 | -2.33 ± 0.33
AGCUAGCAAUAUUACGAUGC | -2.47 ± 0.12 | -2.12 ± 0.17
UUUAAGCAAUAUUACGCACA | -0.157 ± 0.068 | 0.181 ± 0.086
GCAGAGCAAUAUUACGUAAG | -1.79 ± 0.16 | -1.88 ± 0.23
CCUAAGCAAUAUUACGCAGC | -3.07 ± 0.29 | -2.46 ± 0.24
CAUAAGCAAUAUUACGGUUA | -2.7 ± 0.16 | -2.05 ± 0.12
AAACAGCAAUAUUACGCAGU | -3.42 ± 0.15 | -1.44 ± 0.12
CAACAGCAAUAUUACGCAGA | -3.45 ± 0.14 | -1.35 ± 0.075

Sequence | self-splicing fitness (ln) (30 °C) | self-splicing fitness (ln) (37 °C)
AGACAGCAAUAUUACGGGAU | -1.22 ± 0.098 | -1.71 ± 0.14
UUCGAGCAAUAUUACGCUGA | -2.66 ± 0.45 | -1.89 ± 0.44
CGUAAGCAAUAUUACGGGCG | -2.87 ± 0.22 | -1.12 ± 0.14
GGCCAGCAAUAUUACGAUCC | -0.826 ± 0.11 | 0.0889 ± 0.14
UCGUAGCAAUAUUACGAAAC |  | -2.91 ± 0.38
ACGAAGCAAUAUUACGAGGU | -3.96 ± 0.22 | -3.57 ± 0.22
GUGUAGCAAUAUUACGAUCG | -1.94 ± 0.22 | 0.634 ± 0.17
CGCAAGCAAUAUUACGCUCU | -1.26 ± 0.093 | -0.475 ± 0.094
GACUAGCAAUAUUACGAAUC | -2.28 ± 0.32 | -1.83 ± 0.28
GUGUAGCAAUAUUACGGUAC | -2.1 ± 0.22 | -1.43 ± 0.25
ACGGAGCAAUAUUACGAUGA | -2.56 ± 0.12 | -2.57 ± 0.19
GGUUAGCAAUAUUACGUUAU | -1.61 ± 0.1 | -0.954 ± 0.1
UGCAAGCAAUAUUACGUCUU | -4.52 ± 0.31 | -0.686 ± 0.1
AGCGAGCAAUAUUACGAUCU | -0.233 ± 0.09 | -0.579 ± 0.12
CCAAAGCAAUAUUACGCCUA | -4.18 ± 0.33 | -3.12 ± 0.35
CAGUAGCAAUAUUACGUUAC | -3.34 ± 0.47 | -2.76 ± 0.3
UGAUAGCAAUAUUACGAUAA | -2.12 ± 0.16 | -0.841 ± 0.17
GACUAGCAAUAUUACGUCGC | -3.63 ± 0.18 | -1.94 ± 0.16
UAAUAGCAAUAUUACGGCGA | -1.6 ± 0.21 | -0.266 ± 0.22
CAAAAGCAAUAUUACGCAUC | -3.35 ± 0.11 | -1.52 ± 0.12
AAGCAGCAAUAUUACGCUGC | -3.47 ± 0.13 | -3.05 ± 0.18
GUAUAGCAAUAUUACGUAGU | -2.17 ± 0.096 | -1.26 ± 0.095
CACAAGCAAUAUUACGAUGG | -0.756 ± 0.045 | 0.369 ± 0.07
UGAUAGCAAUAUUACGAUGU |  | -2.04 ± 0.34
UUUGAGCAAUAUUACGUCAA | -1.66 ± 0.21 | -2.66 ± 0.37
UUCAAGCAAUAUUACGUUUC | -3.02 ± 0.13 | -2.25 ± 0.18

Sequence | self-splicing fitness (ln) (30 °C) | self-splicing fitness (ln) (37 °C)
GGUUAGCAAUAUUACGUGCC | -2 ± 0.46 | 
GUAAAGCAAUAUUACGGAUG | -2.97 ± 0.24 | -0.613 ± 0.19
CCCAAGCAAUAUUACGUUAU | -4.09 ± 0.2 | -2.96 ± 0.19
GCGCAGCAAUAUUACGUUAA | -1.45 ± 0.089 | -0.728 ± 0.088
AUACAGCAAUAUUACGCAGG | -2.78 ± 0.14 | -0.332 ± 0.11
AGUUAGCAAUAUUACGGGUC | -1.99 ± 0.33 | 
CGGUAGCAAUAUUACGGGCG | -0.838 ± 0.12 | 0.0595 ± 0.14
GUCGAGCAAUAUUACGACAU | -0.997 ± 0.015 | -0.465 ± 0.033
UUGGAGCAAUAUUACGGUUU | -3.38 ± 0.31 | -2.9 ± 0.47
AAUGAGCAAUAUUACGUGUU | -4.51 ± 0.23 | -2.85 ± 0.22
CAGAAGCAAUAUUACGUGUU | -4.1 ± 0.18 | -3.45 ± 0.16
AAUAAGCAAUAUUACGGGAC | -3.76 ± 0.3 | -2.17 ± 0.21
ACAAAGCAAUAUUACGGUCA | -0.595 ± 0.069 | -0.472 ± 0.07
CGGAAGCAAUAUUACGAUAC | -2.26 ± 0.18 | -2.22 ± 0.21
AACAAGCAAUAUUACGUUGA | -3.31 ± 0.13 | -1.95 ± 0.1
CCACAGCAAUAUUACGAAAG | -1.55 ± 0.066 | -0.182 ± 0.082
ACGUAGCAAUAUUACGCAGA | -3.08 ± 0.27 | -2.48 ± 0.18
GGGGAGCAAUAUUACGUGUU | -3.92 ± 0.35 | -2.29 ± 0.27
UCCUAGCAAUAUUACGCACA | -2.29 ± 0.22 | -1.45 ± 0.21
UGUCAGCAAUAUUACGUGCC | -0.825 ± 0.12 | -0.182 ± 0.14
UACCAGCAAUAUUACGACAU | -1.381 ± 0.012 | -0.566 ± 0.032
GUGCAGCAAUAUUACGGACA | -1.58 ± 0.14 | -0.853 ± 0.16
GACCAGCAAUAUUACGACAA | -0.854 ± 0.099 | -0.621 ± 0.13
UAAUAGCAAUAUUACGCACC | -2.04 ± 0.21 | -0.918 ± 0.24
